Data published in article PMC9482650, “Quantitative fragmentomics allow affinity mapping of interactomes” (Nature Communications, 2022).

How the values were obtained:
Assay in all cases: holdup assay
Design in all cases: key: below the threshold = too weak to quantify, mostly under pKd 3.1 to 4
GRIP2_5, Q9C0E4 = biological target: GRIP2_5, Q9C0E4
SCRIB_2, Q14160 = biological target: SCRIB_2, Q14160
GRIP1_5, Q9Y3R0 = biological target: T1, GRIP1_5, Q9Y3R0
T1 sequence (Q9Y3R0 568-668, limits assumed, looked up): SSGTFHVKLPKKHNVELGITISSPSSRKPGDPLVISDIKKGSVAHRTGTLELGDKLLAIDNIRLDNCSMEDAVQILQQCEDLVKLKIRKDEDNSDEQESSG

PARD3_3, Q8TEW0 = biological target: PARD3_3, Q8TEW0
FRMPD3, Q5JV73 = biological target: FRMPD3, Q5JV73
APBA1_1, Q02410 = biological target: T2, APBA1_1, Q02410
T2 sequence (Q02410 651-752, limits assumed, looked up): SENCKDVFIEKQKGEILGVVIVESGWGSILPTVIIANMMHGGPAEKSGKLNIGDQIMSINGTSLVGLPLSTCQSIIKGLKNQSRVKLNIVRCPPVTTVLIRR

LNX1_1, Q8TBB1 = biological target: LNX1_1, Q8TBB1
PDZD7_3, Q9H5P4 = biological target: T3, PDZD7_3, Q9H5P4
T3 sequence (Q9H5P4 857-944, limits assumed, looked up): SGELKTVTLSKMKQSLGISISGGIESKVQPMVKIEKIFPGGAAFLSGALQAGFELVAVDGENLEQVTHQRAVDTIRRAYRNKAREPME

APBA1_2, Q02410 = biological target: T4, APBA1_2, Q02410
T4 sequence (Q02410 742-832, limits assumed, looked up): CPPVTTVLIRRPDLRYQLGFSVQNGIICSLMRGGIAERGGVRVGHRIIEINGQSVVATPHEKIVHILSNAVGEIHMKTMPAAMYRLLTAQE

PDZRN3_1, Q9UPQ7 = biological target: T5, PDZRN3_1, Q9UPQ7
T5 sequence (Q9UPQ7 244-349, limits assumed, looked up): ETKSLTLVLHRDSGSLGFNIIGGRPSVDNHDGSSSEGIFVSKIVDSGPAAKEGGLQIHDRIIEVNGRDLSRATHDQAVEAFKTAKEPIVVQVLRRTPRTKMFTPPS

PARD3B_1, Q8TEW8 = biological target: T6, PARD3B_1, Q8TEW8
T6 sequence (Q8TEW8 196-299, limits assumed, looked up): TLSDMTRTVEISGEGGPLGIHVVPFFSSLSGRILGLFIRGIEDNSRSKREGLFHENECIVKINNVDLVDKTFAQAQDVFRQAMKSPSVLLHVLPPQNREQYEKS

TX1BP3, O14907 = biological target: T7, TX1BP3, O14907
T7 sequence (O14907 10-122, limits assumed, looked up): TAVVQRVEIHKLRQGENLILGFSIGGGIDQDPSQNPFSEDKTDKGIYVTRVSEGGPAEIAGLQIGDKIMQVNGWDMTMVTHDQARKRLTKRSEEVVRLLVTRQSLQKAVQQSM

DLG3_2, Q92796 = biological target: T8, DLG3_2, Q92796
T8 sequence (Q92796 221-321, limits assumed, looked up): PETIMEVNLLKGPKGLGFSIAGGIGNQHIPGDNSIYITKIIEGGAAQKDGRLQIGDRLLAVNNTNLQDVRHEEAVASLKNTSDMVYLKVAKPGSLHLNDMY

RAPGEF6, Q8TEU7 = biological target: T9, RAPGEF6, Q8TEU7
T9 sequence (Q8TEU7 525-625, limits assumed, looked up): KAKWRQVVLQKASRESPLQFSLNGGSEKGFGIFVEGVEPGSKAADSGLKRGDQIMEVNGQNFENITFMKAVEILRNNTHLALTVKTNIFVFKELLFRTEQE

DVL3, Q92997 = biological target: T10, DVL3, Q92997
T10 sequence (Q92997 244-331, limits assumed, looked up): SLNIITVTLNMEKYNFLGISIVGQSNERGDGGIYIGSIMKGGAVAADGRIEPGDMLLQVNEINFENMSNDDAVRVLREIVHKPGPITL

ARHGEF11, O15085 = biological target: T11, ARHGEF11, O15085
T11 sequence (O15085 42-136, limits assumed, looked up): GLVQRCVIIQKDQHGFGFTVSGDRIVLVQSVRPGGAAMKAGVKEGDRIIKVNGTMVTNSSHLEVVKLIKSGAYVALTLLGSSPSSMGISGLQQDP

GRIP1_3, Q9Y3R0 = biological target: T12, GRIP1_3, Q9Y3R0
T12 sequence (Q9Y3R0 247-346, limits assumed, looked up): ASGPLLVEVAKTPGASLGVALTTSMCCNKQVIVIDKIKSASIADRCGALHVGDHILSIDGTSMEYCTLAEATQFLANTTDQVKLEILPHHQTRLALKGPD

GRIP2_4, Q9C0E4 = biological target: GRIP2_4, Q9C0E4
GRASP, Q7Z6J2 = biological target: GRASP, Q7Z6J2
LIN7B, Q9HAP6 = biological target: T13, LIN7B, Q9HAP6
T13 sequence (Q9HAP6 88-185, limits assumed, looked up): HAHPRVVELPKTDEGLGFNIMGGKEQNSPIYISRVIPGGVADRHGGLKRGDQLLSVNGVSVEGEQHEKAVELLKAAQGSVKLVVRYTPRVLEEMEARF

Inadl_4, Q8NI35 = biological target: Inadl_4, Q8NI35
SNTG2, Q9NY99 = biological target: T14, SNTG2, Q9NY99
T14 sequence (Q9NY99 68-166, limits assumed, looked up): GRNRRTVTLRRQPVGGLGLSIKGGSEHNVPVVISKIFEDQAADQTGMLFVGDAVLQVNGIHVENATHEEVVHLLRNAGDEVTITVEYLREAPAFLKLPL

LNX1_3, Q8TBB1 = biological target: LNX1_3, Q8TBB1
[1] = plain residues with an end cap or a label only (N-terminal biotin on a linker: ahx)
[2] = plain residues with an end cap or a label only (N-terminal biotin on a linker: ado-ado)
[3] = plain residues with an end cap or a label only (N-terminal biotin on a linker: ttds)

Sequence of Inadl_4, Q8NI35 (Q8NI35 547-651): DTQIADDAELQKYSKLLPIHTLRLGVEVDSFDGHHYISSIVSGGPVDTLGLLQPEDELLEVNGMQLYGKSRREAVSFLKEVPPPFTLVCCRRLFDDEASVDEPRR
Sequence of GRIP2_4, Q9C0E4 (Q9C0E4 446-548): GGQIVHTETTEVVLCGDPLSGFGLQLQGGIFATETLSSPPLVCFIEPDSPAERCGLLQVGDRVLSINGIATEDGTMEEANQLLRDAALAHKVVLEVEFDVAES
Sequence of FRMPD3, Q5JV73 (Q5JV73 12-100): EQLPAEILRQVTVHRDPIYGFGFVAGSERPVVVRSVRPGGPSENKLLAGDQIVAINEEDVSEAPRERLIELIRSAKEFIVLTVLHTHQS
Sequence of PARD3_3, Q8TEW0 (Q8TEW0 582-685): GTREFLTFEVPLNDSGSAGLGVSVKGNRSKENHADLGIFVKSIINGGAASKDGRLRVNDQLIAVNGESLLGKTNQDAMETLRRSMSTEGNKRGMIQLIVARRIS
Sequence of GRIP2_5, Q9C0E4 (Q9C0E4 544-642): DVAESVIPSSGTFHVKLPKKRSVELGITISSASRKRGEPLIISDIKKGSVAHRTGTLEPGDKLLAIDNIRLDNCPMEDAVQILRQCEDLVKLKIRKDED
Sequence of LNX1_3, Q8TBB1 (Q8TBB1 500-596): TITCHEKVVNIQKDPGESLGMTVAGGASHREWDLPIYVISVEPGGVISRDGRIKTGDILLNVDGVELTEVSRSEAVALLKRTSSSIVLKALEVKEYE
Sequence of GRASP, Q7Z6J2 (Q7Z6J2 96-193): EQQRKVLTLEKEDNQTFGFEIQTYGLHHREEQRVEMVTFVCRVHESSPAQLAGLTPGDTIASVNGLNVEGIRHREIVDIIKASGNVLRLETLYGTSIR
Sequence of SCRIB_2, Q14160 (Q14160 857-960): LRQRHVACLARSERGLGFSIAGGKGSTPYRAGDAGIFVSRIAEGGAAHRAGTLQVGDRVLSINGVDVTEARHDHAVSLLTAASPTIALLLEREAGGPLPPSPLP
Sequence of LNX1_1, Q8TBB1 (Q8TBB1 261-371): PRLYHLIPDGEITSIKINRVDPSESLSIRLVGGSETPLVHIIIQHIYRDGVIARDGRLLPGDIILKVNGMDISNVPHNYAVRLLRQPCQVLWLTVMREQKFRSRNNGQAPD

In the case of KEYDDELTFF [USH1C, Q9Y6N9], the pKd (GRIP2_5, Q9C0E4; [1]) is reported as “below the threshold”, the pKd (SCRIB_2, Q14160; [1]) is reported as “below the threshold” and the pKd (GRIP1_5, Q9Y3R0; [1]) is reported as “below the threshold”. For the same binder, the pKd (PARD3_3, Q8TEW0; [1]) was 5.09, the pKd (FRMPD3, Q5JV73; [1]) was 4.7 and the pKd (APBA1_1, Q02410; [1]) was “below the threshold”. The pKd (LNX1_1, Q8TBB1; [1]) was “below the threshold”, the pKd (PDZD7_3, Q9H5P4; [1]) was 3.64 and the pKd (APBA1_2, Q02410; [1]) was “below the threshold”. The pKd (PDZRN3_1, Q9UPQ7; [1]) was “below the threshold”, the pKd (PARD3B_1, Q8TEW8; [1]) was 4.52 and the pKd (TX1BP3, O14907; [1]) was “below the threshold”. For the same binder, the pKd (DLG3_2, Q92796; [1]) was 3.61, the pKd (RAPGEF6, Q8TEU7; [1]) was “below the threshold” and the pKd (DVL3, Q92997; [1]) was 3.62. For the same binder, the pKd (ARHGEF11, O15085; [1]) was “below the threshold”, the pKd (GRIP1_3, Q9Y3R0; [1]) was “below the threshold” and the pKd (GRIP2_4, Q9C0E4; [1]) was “below the threshold”. The pKd (GRASP, Q7Z6J2; [1]) was 4.41, the pKd (LIN7B, Q9HAP6; [1]) was “below the threshold” and the pKd (Inadl_4, Q8NI35; [1]) was “below the threshold”. The pKd (SNTG2, Q9NY99; [1]) was “below the threshold” and the pKd (LNX1_3, Q8TBB1; [1]) was “below the threshold”.

EKPIDSETKM [SLC1A3, P43003] was tested, and the pKd (GRIP2_5, Q9C0E4; [2]) was “below the threshold”, the pKd (SCRIB_2, Q14160; [2]) was “below the threshold” and the pKd (GRIP1_5, Q9Y3R0; [2]) was “below the threshold”. The pKd (PARD3_3, Q8TEW0; [2]) was “below the threshold”, the pKd (FRMPD3, Q5JV73; [2]) was “below the threshold” and the pKd (APBA1_1, Q02410; [2]) was “below the threshold”. For the same binder, the pKd (LNX1_1, Q8TBB1; [2]) was “below the threshold”, the pKd (PDZD7_3, Q9H5P4; [2]) was “below the threshold” and the pKd (APBA1_2, Q02410; [2]) was “below the threshold”. The pKd (PDZRN3_1, Q9UPQ7; [2]) was “below the threshold”, the pKd (PARD3B_1, Q8TEW8; [2]) was “below the threshold” and the pKd (TX1BP3, O14907; [2]) was “below the threshold”. The pKd (DLG3_2, Q92796; [2]) was “below the threshold”, the pKd (RAPGEF6, Q8TEU7; [2]) was “below the threshold” and the pKd (DVL3, Q92997; [2]) was “below the threshold”. For the same binder, the pKd (ARHGEF11, O15085; [2]) was “below the threshold”, the pKd (GRIP1_3, Q9Y3R0; [2]) was “below the threshold” and the pKd (GRIP2_4, Q9C0E4; [2]) was “below the threshold”. The pKd (GRASP, Q7Z6J2; [2]) was “below the threshold”, the pKd (LIN7B, Q9HAP6; [2]) was “below the threshold” and the pKd (Inadl_4, Q8NI35; [2]) was “below the threshold”. The pKd (SNTG2, Q9NY99; [2]) was “below the threshold” and the pKd (LNX1_3, Q8TBB1; [2]) was “below the threshold”.

With PFRSRSPSEV [GPR6, P46095] the pKd (GRIP2_5, Q9C0E4; [3]) was “below the threshold”, the pKd (SCRIB_2, Q14160; [3]) was “below the threshold” and the pKd (GRIP1_5, Q9Y3R0; [3]) was “below the threshold”. The pKd (PARD3_3, Q8TEW0; [3]) was “below the threshold”, the pKd (FRMPD3, Q5JV73; [3]) was “below the threshold” and the pKd (APBA1_1, Q02410; [3]) was “below the threshold”. For the same binder, the pKd (LNX1_1, Q8TBB1; [3]) was “below the threshold”, the pKd (PDZD7_3, Q9H5P4; [3]) was “below the threshold” and the pKd (APBA1_2, Q02410; [3]) was 3.83. The pKd (PDZRN3_1, Q9UPQ7; [3]) was “below the threshold”, the pKd (PARD3B_1, Q8TEW8; [3]) was 3.8 and the pKd (TX1BP3, O14907; [3]) was 3.61. The pKd (DLG3_2, Q92796; [3]) was “below the threshold”, the pKd (RAPGEF6, Q8TEU7; [3]) was “below the threshold” and the pKd (DVL3, Q92997; [3]) was 3.6. The pKd (ARHGEF11, O15085; [3]) was “below the threshold”, the pKd (GRIP1_3, Q9Y3R0; [3]) was “below the threshold” and the pKd (GRIP2_4, Q9C0E4; [3]) was “below the threshold”. The pKd (GRASP, Q7Z6J2; [3]) was “below the threshold”, the pKd (LIN7B, Q9HAP6; [3]) was “below the threshold” and the pKd (Inadl_4, Q8NI35; [3]) was “below the threshold”. For the same binder, the pKd (SNTG2, Q9NY99; [3]) was “below the threshold” and the pKd (LNX1_3, Q8TBB1; [3]) was “below the threshold”.
